Our source for the binding result and IC50 values is patent US20250074980A1 (BRIGHAM AND WOMEN S HOSPITAL, published 2025).

The target of assay [1] is T1, CEACAM3 on transfected HeLa cells (human, UniProt P40198 35-252).
T1 construct: whole, on cells; also called HeLa-CEACAM3; HeLa C3
T1 sequence (looked up): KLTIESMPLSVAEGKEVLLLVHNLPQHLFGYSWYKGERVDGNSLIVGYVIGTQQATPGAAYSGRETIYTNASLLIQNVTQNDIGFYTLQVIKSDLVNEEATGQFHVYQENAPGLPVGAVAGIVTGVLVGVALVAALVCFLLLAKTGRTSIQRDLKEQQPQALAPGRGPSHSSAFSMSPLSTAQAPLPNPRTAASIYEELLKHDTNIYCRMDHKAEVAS
As to the kind of experiment: flow cytometry titration, HeLa-CEACAM3 transfectants, anti-human IgG4 FITC. The method, then: (§1) FIGS. 31A and 31B show flow cytometry analyses of stable HeLa CEACAM1 (HeLa C1) transfectant, stable HeLa CEACAM3 transfectant (HeLa C3), stable HeLa CEACAM5 transfectant (HeLa C5), stable HeLa CEACAM6 transfectant (HeLa C6), and stable HeLa CEACAM8 transfectant (HeLa C8). FIG. 31A: 5×10\hat{ }4 indicated HeLa transfectants were washed with staining buffer and CP08H03/Vκ8 S29A (labeled “CP08”, left) or CEACAM1 antibody CM-24 was incubated at room temperature for 30 min, washed twice with staining buffer, and stained for anti-human IgG4 Fluorescein isothiocyanate (FITC) conjugated secondary antibody at room temperature for 20 min. Fluorescence intensities were determined by flow cytometry. Live cells were determined by 4′,6-diamidino-2-phenylindole (DAPI) staining as shown on the y-axis. Staining with the respective CEACAM1 antibody is shown on the x-axis. […]
(§2) The cervical adenocarcinoma cell line HeLa (ATCC No CCL-2) as well as transfected cell lines HeLaCEACAM1, HeLaCEACAM3, HeLaCEACAM5, HeLaCEACAM6 and HeLaCEACAM8 used for flow cytometry experiments were cultured at 37° C., 5.0% CO₂ in Dulbecco's modified Eagle's medium supplemented with 10% fetal bovine serum, penicillin (100 U/ml) and dihydrostreptomycin (100 μg/ml). […] Data were acquired with a Cytoflex flow cytometer (Invitrogen) and analyzed with FlowJo software (TreeStar, V7.6.5 for Windows).
On the technique in general: In flow cytometry, cells or beads pass a laser one at a time.

The target in assay [2] is T2, CEACAM8 on transfected HeLa cells (human, UniProt P31997 35-320).
T2 construct: whole, on cells; also called HeLa-CEACAM8; HeLa C8
T2 sequence (looked up): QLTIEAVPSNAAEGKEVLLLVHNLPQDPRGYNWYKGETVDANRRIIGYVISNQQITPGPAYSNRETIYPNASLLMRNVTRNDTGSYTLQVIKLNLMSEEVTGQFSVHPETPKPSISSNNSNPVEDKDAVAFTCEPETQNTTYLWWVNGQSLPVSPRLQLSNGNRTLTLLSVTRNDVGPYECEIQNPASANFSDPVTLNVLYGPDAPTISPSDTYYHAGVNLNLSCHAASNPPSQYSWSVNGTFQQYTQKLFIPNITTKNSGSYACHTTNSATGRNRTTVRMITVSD
As to the kind of experiment: flow cytometry titration, HeLa-CEACAM8 transfectants, anti-human IgG4 FITC. The method, then: as §1, §2

In the next assay the target is T3, GST-CEACAM1 (human, UniProt P13688 35-141, limits assumed).
T3 construct: also called human CEACAM1-GST protein
T3 sequence: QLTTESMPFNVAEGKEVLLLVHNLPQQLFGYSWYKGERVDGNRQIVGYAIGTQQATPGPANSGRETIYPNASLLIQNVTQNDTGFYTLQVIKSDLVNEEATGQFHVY
As to the kind of experiment: competition ELISA: binding of human CEACAM1-GST (37.5 µg/ml) to human CEACAM1 IgV domain tagless protein (1 µg/ml), anti-GST detection, OD 450 nm. The method, then: The ability of the CEACAM1 antibodies to block CEACAM1 homodimerization was tested. […] In addition, IgG4 antibody was used as a control (0-1000 nM). Goat polyclonal anti-GST-HSP antibody from Abcam (1:2000) was used and assays were developed by addition of TMB solution (Life technologies). OD values were read at 450 nm on a plate reader. Data was plotted in a Graphpad and best-fit IC-50 values were determined.
(In an ELISA, binding on a coated surface is turned into a signal by an enzyme label.)

Assay [3] deals with T1, CEACAM3 on transfected HeLa cells. The assay is described as follows: flow cytometry, transfected HeLa. The method in brief:
(§3)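 Binding selectivity was assessed by flow cytometry and is expressed as the staining of each HeLa transfectant, each stably carrying a single CEACAM family member. The cells were kept at 37° C, 5.0% CO₂ in DMEM containing 10% fetal bovine serum. Staining used the test antibody followed by a fluorochrome-conjugated isotype-specific secondary antibody, and DAPI marked viability.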

In assay [4] the target is T2, CEACAM8 on transfected HeLa cells. As to the kind of experiment: flow cytometry, transfected HeLa. The method in brief: as §3

B1: CP08H03/Vκ8 S29A (antibody, IgG4, V domains shown)
VH: EVQLLESGGGLVQPGGSLRLSCAASGFIFSSHGMSWVRQAPGKGLEWVATISSGGTYTYYPDSVKGRFTISRDNSKNTLYLQMNSLKAEDTAMYYCARHDFDYFPYWFAHWGQGTLVTVSS
VL: EIVLTQSPATLSLSPGERATLSCRANSAVSYMYWYQQKPGQAPRPWIYLTSNRATGVPARFSGSGSGTDYTLTISSLEPEDFAVYYCQQWSSNPPTFGQGTKLEIK
notes: IgG4 (S241P), kappa; also called CP08_H03/Parent VL; CP08_H03/Parental
For the molecule B1, the binding result in assay [1] and in assay [2] was “no binding (tested: 100 ug/ml)” each time. In the assay with GST-CEACAM1, this molecule gave an IC50 of 2.11 nM.

B2: chimeric antibody VH0/Vκ0 (antibody, IgG4, V domains shown)
VH: EVQLVESGGDLVKPGGSLKLACAASGFIFSSHGMSWVRQTPDKRLEWVATISSGGTYTYYPDSVKGRFTISRDNDKNTLYLQMNSLKSEDTAMYYCARHDFDYDAAWFAYWGQGTLVTVSS
VL: QIVLTQSPALMSASPGVKVTMTCSANSSVSYMYWYRQKPRSSPKPWIYLTSNLASGVPARFSGSGSGTSYSLTISSMEAEDAATYYCQQWSSNPPTFGSGTKLEIK
notes: IgG4 (S241P), kappa; also called VH0/Vκ0 (control); Chimeric VH0/Vκ0
As for B2, the binding result in assay [3] and in assay [4] was “no binding” throughout.

As a reminder, the IC50 is the midpoint of a concentration-inhibition curve. Higher therefore signals weaker potency in that assay.
